Data published in article PMC4860158 (Journal of neurochemistry, 2016).

Target: the molecule itself
Assay: SEC

B1: Gloeobacter violaceus ligand-gated ion channel (GLIC), wild type, pentameric assembly (natural protein, UniProt Q7NDN8 44-359, looked up)
chain: QDMVSPPPPIADEPLTVNTGIYLIECYSLDDKAETFKVNAFLSLSWKDRRLAFDPVRSGVRVKTYEPEAIWIPEIRFVNVENARDADVVDISVSPDGTVQYLERFSARVLSPLDFRRYPFDSQTLHIYLIVRSVDTRNIVLAVDLEKVGKNDDVFLTGWDIESFTAVVKPANFALEDRLESKLDYQLRISRQYFSYIPNIILPMLFILFISWTAFWSTSYEANVTLVVSTLIAHIAFNILVETNLPKTPYMTYTGAIIFMIYLFYFVAVIEVTVQHYLKVESQPARAASITRASRIAFPVVFLLANIILAFLFFGF
  stoichiometry N: 5
